Laboratory results as given in patent US11618906B2, “Hydroxylation techniques” (HYPHA DISCOVERY LTD., priority 2018, dated 2023).

Tests used:
Assay type in all cases: biochemical
[1] = Hydroxylation of diclofenac catalysed by cytochrome P450 aluC09 and mutants (UPLC-PDA-MS); settings: for 4′,5-dihydroxy-diclofenac 1.38 mins / 4′-hydroxy-diclofenac (1) 1.62 mins / 5-hydroxy-diclofenac (2) 1.58 mins / Diclofenac (Substrate) 1.81 mins: % by UV peak area at 275 nm, 0.125 mg/ml substrate, 27° C., 16-20 hours; for regioselectivity of hydroxylation (product ratio 4′-hydroxydiclofenac : 5-hydroxydiclofenac) / Hydroxylated Ratio hydroxy 1:hydroxy 2: diclofenac; for Hydroxylated Ratio hydroxy 1:hydroxy 2: ratio of UV peak areas at 275nm
Description: (§1) Lyophilised material of mutants of CYP450aluC09, ferredoxinaluF03 and ferredoxin reductaseSCF15A was made as described in examples 3 and 4 and suspended in water (0.5 mL per vial) and biocatalysis was performed at 27° C. in the following conditions: 50 mM potassium phosphate pH 7.4, 5 mM MgCl2, 0.125 mg/ml substrate compound such as diclofenac (Sigma-Aldrich, UK), Aceclofenac (Tokyo Chemical Industry UK Ltd, UK), Indomethacin (Sigma-Aldrich, UK), Flufenamic acid (Sigma-Aldrich, UK), Napropamide (Sigma-Aldrich, UK), celecoxib (LC Laboratories, USA), valsartan (Tokyo Chemical Industry UK Ltd, UK), ruxolitinib (LC Laboratories, USA), 4-pyrrolidylacetophenone (Sigma-Aldrich, UK), tofacitinib (LC Laboratories, USA), bosentan (CarboSynth Ltd, UK), buparvaquone (MedChemtronica, Sweden), BIRB796 (Stratech Scientific Limited, UK), epothilone B (LC Laboratories, USA), ritonavir (Tokyo Chemical Industry UK Ltd, UK) or tivantinib (MedChemtronica, Sweden), P450AluC09 (concentration as in Table 8), 5 mM G6P, 1 mM NADP, 2 UN/ml G6PDH in a final volume of 100 μL. After 16-20 hours at 200 rpm (5 cm orbital shaker, Kuhner AG, Switzerland), reactions were extracted with an equal volume of acetonitrile, centrifuged to remove precipitated proteins and conversion assessed by UPLC-MS analysis.
(§2) UPLC data was obtained as follows:
(§3) Column: Acquity UPLC BEH Shield RP18 1.7 μm 2.1 mm i.d. 50 mm length
(§4) Solvents: H2O, B: Acetonitrile, both with 0.1% Formic acid
(§5) Detector: Waters Acquity UPLC PDA (UV-Vis detection) and Waters Acquity UPLC QDA (MS)
Illustrative results for the hydroxylation of diclofenac by CYP450aluC09 and selected T291x mutants are summarised below in Table 3 with representative chromatograms resented in FIG. 3a-c; retention times: diclofenac 1.85-1.88 minutes, 5-hydroxydiclofenac 1.60-1.63 minutes, 4′-hydroxydiclofenac 1.65-1.68 minutes, 4′,5-dihydroxydiclofenac 1.40-1.42 minutes. The chromatographic retention times and mass spectra coincided with those of authentic samples.

[2] = Hydroxylation of flufenamic acid catalysed by cytochrome P450 aluC09 and mutants; settings: for Flufenamic Acid (Substrate) 1.93 mins / Hydroxy-Flufenamic Acid (1) 1.69 mins / Hydroxy-Flufenamic Acid (2) 1.65 mins: % by UV peak area at 275 nm, 0.125 mg/ml substrate, 27° C., 16-20 hours; for Hydroxylated Ratio 1:2: flufenamic acid, ratio of UV peak areas at 275 nm
Description: as §1, §2, §3, §4, §5
Flufenamic acid elutes at 1.93 minutes, hydroxy-flufenamic acid 1 elutes at 1.68 minutes and hydroxy-flufenamic acid 2 elutes at 1.65 minutes.

[3] = Hydroxylation of aceclofenac catalysed by cytochrome P450 aluC09 and mutants; settings: for Aceclofenac (Substrate) (1.80 mins) / Dihydroxy-Aceclofenac (1.42 mins) / Hydroxy-Aceclofenac (1) (1.64 min) / Hydroxy-Aceclofenac (2) (1.60 min): % by UV peak area at 275 nm, 0.125 mg/ml substrate, 27° C., 16-20 hours; for Hydroxylated Ratio 2:1: aceclofenac, ratio of UV peak areas at 275 nm
Description: as §1, §2, §3, §4, §5
Chromatograms are provided in FIGS. 5a-c; aceclofenac elutes at 1.80 minutes, hydroxy-aceclofenac acid 1 elutes at 1.64 minutes, hydroxy-aceclofenac acid 2 elutes at 1.60 minutes and dihydroxy-aceclofenac elutes at 1.42 minutes.

[4] = Hydroxylation / de-N-ethylation of napropamide catalysed by cytochrome P450 aluC09 and mutants; settings: for Desethyl Napropamide (1.62 min) / Desethyl-hydroxy-Napropamide (1.41 min) / Hydroxy-Napropamide (1) (1.53 min) / Hydroxy-Napropamide (2), (1.52 min) / M-2Da (unidentified) (1.89 min) / Napropamide (substrate): % by UV peak area at 275 nm, 0.125 mg/ml substrate, 27° C., 16-20 hours; for Hydroxylated Ratio 2:1: napropamide, ratio of UV peak areas
Description: as §1, §2, §3, §4, §5
Napropamide elutes at 1.76 minutes, unidentified metabolite (−2 Da) elutes at 1.90 minutes, desethyl-napropamide elutes at 1.62 minutes, hydroxy-napropamide 1 elutes at 1.53 minutes and hydroxy-napropamide 2 elutes at 1.52 minutes and the desethyl-hydroxy-napropamide product elutes at 1.41 minutes.

[5] = O-demethylation of indomethacin catalysed by cytochrome P450 aluC09 and mutants; settings: % by UV peak area at 275 nm; 0.125 mg/ml substrate, 27° C., 16-20 hours
Description: as §1, §2, §3, §4, §5

[6] = Metabolism of ritonavir by P450 aluC09 and mutants; settings: percent of substrate being converted; 0.125 mg/ml, 27° C., 16-20 hours; [CYP] per enzyme as in Table 8
Description: as §1
(§6) However, of particular note when considering P450 concentration are the results for mutants M12, M20 and M34, as well as the deleterious impact on the range of substrate utility in mutants M39 and M40.

[7] = Metabolism of celecoxib by P450 aluC09 and mutants; settings: percent of substrate being converted; 0.125 mg/ml, 27° C., 16-20 hours; [CYP] per enzyme as in Table 8
Description: as §1, §6

[8] = Metabolism of epothilone B by P450 aluC09 and mutants; settings: percent of substrate being converted; 0.125 mg/ml, 27° C., 16-20 hours; [CYP] per enzyme as in Table 8
Description: as §1, §6

[9] = Metabolism of buparvaquone by P450 aluC09 and mutants; settings: percent of substrate being converted; 0.125 mg/ml, 27° C., 16-20 hours; [CYP] per enzyme as in Table 8
Description: as §1, §6

[10] = Metabolism of BIRB796 by P450 aluC09 and mutants; settings: percent of substrate being converted; 0.125 mg/ml, 27° C., 16-20 hours; [CYP] per enzyme as in Table 8
Description: as §1, §6

[11] = Metabolism of bosentan by P450 aluC09 and mutants; settings: percent of substrate being converted; 0.125 mg/ml, 27° C., 16-20 hours; [CYP] per enzyme as in Table 8
Description: as §1, §6

[12] = Metabolism of valsartan by P450 aluC09 and mutants; settings: percent of substrate being converted; 0.125 mg/ml, 27° C., 16-20 hours; [CYP] per enzyme as in Table 8
Description: as §1, §6

[13] = Metabolism of ruxolitinib by P450 aluC09 and mutants; settings: percent of substrate being converted; 0.125 mg/ml, 27° C., 16-20 hours; [CYP] per enzyme as in Table 8
Description: as §1, §6

[14] = Metabolism of 4-pyrrolidylacetophenone by P450 aluC09 and mutants; settings: percent of substrate being converted; 0.125 mg/ml, 27° C., 16-20 hours; [CYP] per enzyme as in Table 8
Description: as §1, §6

[15] = Metabolism of tivantinib by P450 aluC09 and mutants; settings: percent of substrate being converted; 0.125 mg/ml, 27° C., 16-20 hours; [CYP] per enzyme as in Table 8
Description: as §1, §6

[16] = Metabolism of tofacitinib by P450 aluC09 and mutants; settings: percent of substrate being converted; 0.125 mg/ml, 27° C., 16-20 hours; [CYP] per enzyme as in Table 8
Description: as §1, §6

Row | Molecule | 4′,5-dihydroxy-diclofenac 1.38 mins [1] | 4′-hydroxy-diclofenac (1) 1.62 mins [1] | 5-hydroxy-diclofenac (2) 1.58 mins [1] | Diclofenac (Substrate) 1.81 mins [1] | Hydroxylated Ratio hydroxy 1:hydroxy 2 [1] | Flufenamic Acid (Substrate) 1.93 mins [2] | Hydroxy-Flufenamic Acid (1) 1.69 mins [2] | Hydroxy-Flufenamic Acid (2) 1.65 mins [2] | Hydroxylated Ratio 1:2 [2] | Aceclofenac (Substrate) (1.80 mins) [3] | Dihydroxy-Aceclofenac (1.42 mins) [3] | Hydroxy-Aceclofenac (1) (1.64 min) [3] | Hydroxy-Aceclofenac (2) (1.60 min) [3] | Hydroxylated Ratio 2:1 [3] | Desethyl Napropamide (1.62 min) [4] | Desethyl-hydroxy-Napropamide (1.41 min) [4] | Hydroxy-Napropamide (1) (1.53 min) [4] | Hydroxy-Napropamide (2), (1.52 min) [4] | M-2Da (unidentified) (1.89 min) [4] | Napropamide (substrate) [4] | further results
1 | aluC09M33: cytochrome P450 aluC09 mutant T291I; amino acid sequence SEQ ID NO: 44 (protein, listed as Amycolatopsis lurida) MTDVEETTATLPLARKCPFSPPPEYERLRRESPVSRVGLPSGQTAWALTRLEDIREMLSSPHFSSDRQSPSFPLMVARQIRREDKPFRPSLIAMDPPEHSRARRDVVGEFTVKRMKALQPRIQQIVDEHLDALLAGPKPADLVQALSLPVPSLVICELLGVPYSDHEFFQSCSSRMLSREVTAEERMTAFEQLENYLDELVTKKEANATEDDLLGRQILKQRETGEADHGELVGLAFLLLIAGHETTANMISLGTVTLLENPDQLAKIKADPGKTLAAIEELLRVFTIAEIATSRFATADVEIGGTLIRAGEGVVGLSNAGNHDPDGFENPDTFDIERGARHHVAFGFGVHQCLGQNLARLELQIVFDTLFRRVPGLRIAVPVDELPFKHDSTIYGLHALPVTW | 1.1% | 29.5% | 6.7% | 63.3% | 4.4 | 98.3% | 1.0% | 0.6% | 1.6 | 30.8% | 8.8% | 41.7% | 18.6% | 0.4 | 30.6% | 5.7% | 1.8% | 4.1% | 5.1% | 56.0% | regioselectivity of hydroxylation (product ratio 4′-hydroxydiclofenac : 5-hydroxydiclofenac) [1]: over four-fold; regioselectivity of hydroxylation of aceclofenac compared to the wild-type enzyme [3]: reversal of the regioselectivity; Hydroxylated Ratio 2:1 [4]: 2.3; Indomethacin (1.74 mins) [5]: 92.8%; O-demethyl-Indomethacin (1.52 mins) [5]: 7.2%; % conversions (avg) Ritonavir [6]: 41.3%; % conversions (avg) Celecoxib [7]: 2.8%; % conversions (avg) Epothilone B [8]: 21.8%; % conversions (avg) Buparvaquone [9]: 8.2%; % conversions (avg) BIRB796 [10]: 13.5%; % conversions (avg) Bosentan [11]: 98.9%; % conversions (avg) Valsartan [12]: 12.4%; % conversions (avg) Ruxolitinib [13]: 30.6%; % conversions (avg) 4-pyrrolidylacetophenone [14]: 7.9%; % conversions (avg) Tivantinib [15]: 29.6%; % conversions (avg) Tofacitinib [16]: 1.1%
2 | aluC09M35: cytochrome P450 aluC09 mutant T291P; amino acid sequence SEQ ID NO: 52 (protein, listed as Amycolatopsis lurida) MTDVEETTATLPLARKCPFSPPPEYERLRRESPVSRVGLPSGQTAWALTRLEDIREMLSSPHFSSDRQSPSFPLMVARQIRREDKPFRPSLIAMDPPEHSRARRDVVGEFTVKRMKALQPRIQQIVDEHLDALLAGPKPADLVQALSLPVPSLVICELLGVPYSDHEFFQSCSSRMLSREVTAEERMTAFEQLENYLDELVTKKEANATEDDLLGRQILKQRETGEADHGELVGLAFLLLIAGHETTANMISLGTVTLLENPDQLAKIKADPGKTLAAIEELLRVFTIAEPATSRFATADVEIGGTLIRAGEGVVGLSNAGNHDPDGFENPDTFDIERGARHHVAFGFGVHQCLGQNLARLELQIVFDTLFRRVPGLRIAVPVDELPFKHDSTIYGLHALPVTW | 0.9% | 41.3% | 9.9% | 48.2% | 4.2 | 95.8% | 2.7% | 1.5% | 1.9 | 21.8% | 26.6% | 12.2% | 39.4% | 3.2 | 36.6% | 4.8% | 1.2% | 3.6% | 5.3% | 51.0% | regioselectivity of hydroxylation (product ratio 4′-hydroxydiclofenac : 5-hydroxydiclofenac) [1]: over four-fold; Hydroxylated Ratio 2:1 [4]: 3.0; Indomethacin (1.74 mins) [5]: 94.1%; O-demethyl-Indomethacin (1.52 mins) [5]: 5.9%; % conversions (avg) Ritonavir [6]: 37.6%; % conversions (avg) Celecoxib [7]: 1.5%; % conversions (avg) Epothilone B [8]: 20.6%; % conversions (avg) Buparvaquone [9]: 7.1%; % conversions (avg) BIRB796 [10]: 4.6%; % conversions (avg) Bosentan [11]: 98.4%; % conversions (avg) Valsartan [12]: 21.8%; % conversions (avg) Ruxolitinib [13]: 34.1%; % conversions (avg) 4-pyrrolidylacetophenone [14]: 3.3%; % conversions (avg) Tivantinib [15]: 35.7%; % conversions (avg) Tofacitinib [16]: 1.1%
3 | aluC09M34: cytochrome P450 aluC09 mutant T291M; amino acid sequence SEQ ID NO: 48 (protein, listed as Amycolatopsis lurida) MTDVEETTATLPLARKCPFSPPPEYERLRRESPVSRVGLPSGQTAWALTRLEDIREMLSSPHFSSDRQSPSFPLMVARQIRREDKPFRPSLIAMDPPEHSRARRDVVGEFTVKRMKALQPRIQQIVDEHLDALLAGPKPADLVQALSLPVPSLVICELLGVPYSDHEFFQSCSSRMLSREVTAEERMTAFEQLENYLDELVTKKEANATEDDLLGRQILKQRETGEADHGELVGLAFLLLIAGHETTANMISLGTVTLLENPDQLAKIKADPGKTLAAIEELLRVFTIAEMATSRFATADVEIGGTLIRAGEGVVGLSNAGNHDPDGFENPDTFDIERGARHHVAFGFGVHQCLGQNLARLELQIVFDTLFRRVPGLRIAVPVDELPFKHDSTIYGLHALPVTW | 1.3% | 35.3% | 10.4% | 53.6% | 3.4 | 94.0% | 3.8% | 2.2% | 1.7 | 36.6% | 21.3% | 15.2% | 26.8% | 1.8 | 40.7% | 5.3% | 3.4% | 3.7% | 5.3% | 44.0% | Hydroxylated Ratio 2:1 [4]: 1.1; Indomethacin (1.74 mins) [5]: 96.2%; O-demethyl-Indomethacin (1.52 mins) [5]: 3.8%; % conversions (avg) Ritonavir [6]: 50.3%; % conversions (avg) Celecoxib [7]: 6.8%; % conversions (avg) Epothilone B [8]: 30.7%; % conversions (avg) Buparvaquone [9]: 11.6%; % conversions (avg) BIRB796 [10]: 18%; % conversions (avg) Bosentan [11]: 99%; % conversions (avg) Valsartan [12]: 43.2%; % conversions (avg) 4-pyrrolidylacetophenone [14]: 7.3%; % conversions (avg) Tivantinib [15]: 59.1%; % conversions (avg) Tofacitinib [16]: 3.1%
